B1: SEQ ID NO 36 (peptide)
peptide: CEWLDYC-OH
modifications: disulfide 1-7; N-terminus assumed
SMILES: CC(C)C[C@@H]1NC(=O)[C@H](Cc2c[nH]c3ccccc23)NC(=O)[C@H](CCC(=O)O)NC(=O)[C@@H](N)CSSC[C@@H](C(=O)O)NC(=O)[C@H](Cc2ccc(O)cc2)NC(=O)[C@H](CC(=O)O)NC1=O
notes: Disulfide cyclic peptide; also called Cys-Glu-Trp-Leu-Asp-Tyr-Cys-acid
B2: SEQ ID NO 34 (peptide)
peptide: CEWLDVC-OH
modifications: disulfide 1-7; N-terminus assumed
SMILES: CC(C)C[C@@H]1NC(=O)[C@H](Cc2c[nH]c3ccccc23)NC(=O)[C@H](CCC(=O)O)NC(=O)[C@@H](N)CSSC[C@@H](C(=O)O)NC(=O)[C@H](C(C)C)NC(=O)[C@H](CC(=O)O)NC1=O
notes: Disulfide cyclic peptide; also called Cys-Glu-Trp-Leu-Asp-Val-Cys-acid
B3: SEQ ID NO 33 (peptide)
peptide: CEWLDVC-NH2
modifications: disulfide 1-7; N-terminus assumed
SMILES: CC(C)C[C@@H]1NC(=O)[C@H](Cc2c[nH]c3ccccc23)NC(=O)[C@H](CCC(=O)O)NC(=O)[C@@H](N)CSSC[C@@H](C(N)=O)NC(=O)[C@H](C(C)C)NC(=O)[C@H](CC(=O)O)NC1=O
notes: Disulfide cyclic peptide; also called Cys-Glu-Trp-Leu-Asp-Val-Cys-amide
B4: SEQ ID NO 18 (peptide)
peptide: Ac-CWLDVC-OH
modifications: disulfide 1-6
SMILES: CC(=O)N[C@H]1CSSC[C@@H](C(=O)O)NC(=O)[C@H](C(C)C)NC(=O)[C@H](CC(=O)O)NC(=O)[C@H](CC(C)C)NC(=O)[C@H](Cc2c[nH]c3ccccc23)NC1=O
notes: Disulfide cyclic peptide; also called Ac-Cys-Trp-Leu-Asp-Val-Cys-acid
B5: SEQ ID NO 29 (peptide)
peptide: CWLDYC-OH
modifications: disulfide 1-6; N-terminus assumed
SMILES: CC(C)C[C@@H]1NC(=O)[C@H](Cc2c[nH]c3ccccc23)NC(=O)[C@@H](N)CSSC[C@@H](C(=O)O)NC(=O)[C@H](Cc2ccc(O)cc2)NC(=O)[C@H](CC(=O)O)NC1=O
notes: Disulfide cyclic peptide; also called Cys-Trp-Leu-Asp-Tyr-Cys-acid
B6: SEQ ID NO 26 (peptide)
peptide: CWKDVC-OH
modifications: disulfide 1-6; N-terminus assumed
SMILES: CC(C)[C@@H]1NC(=O)[C@H](CC(=O)O)NC(=O)[C@H](CCCCN)NC(=O)[C@H](Cc2c[nH]c3ccccc23)NC(=O)[C@@H](N)CSSC[C@@H](C(=O)O)NC1=O
notes: Disulfide cyclic peptide; also called Cys-Trp-Lys-Asp-Val-Cys-acid
B7: SEQ ID NO 20 (peptide)
peptide: CWLDFC-OH
modifications: disulfide 1-6; N-terminus assumed
SMILES: CC(C)C[C@@H]1NC(=O)[C@H](Cc2c[nH]c3ccccc23)NC(=O)[C@@H](N)CSSC[C@@H](C(=O)O)NC(=O)[C@H](Cc2ccccc2)NC(=O)[C@H](CC(=O)O)NC1=O
notes: Disulfide cyclic peptide; also called Cys-Trp-Leu-Asp-Phe-Cys-acid
B8: SEQ ID NO 28 (peptide)
peptide: CWLDLC-OH
modifications: disulfide 1-6; N-terminus assumed
SMILES: CC(C)C[C@@H]1NC(=O)[C@H](CC(=O)O)NC(=O)[C@H](CC(C)C)NC(=O)[C@H](Cc2c[nH]c3ccccc23)NC(=O)[C@@H](N)CSSC[C@@H](C(=O)O)NC1=O
notes: Disulfide cyclic peptide; also called Cys-Trp-Leu-Asp-Leu-Cys-acid
B9: SEQ ID NO 25 (peptide)
peptide: CWVDVC-OH
modifications: disulfide 1-6; N-terminus assumed
SMILES: CC(C)[C@@H]1NC(=O)[C@H](CC(=O)O)NC(=O)[C@H](C(C)C)NC(=O)[C@H](Cc2c[nH]c3ccccc23)NC(=O)[C@@H](N)CSSC[C@@H](C(=O)O)NC1=O
notes: Disulfide cyclic peptide; also called Cys-Trp-Val-Asp-Val-Cys-acid
B10: SEQ ID NO 22 (peptide)
peptide: CWLDWC-OH
modifications: disulfide 1-6; N-terminus assumed
SMILES: CC(C)C[C@@H]1NC(=O)[C@H](Cc2c[nH]c3ccccc23)NC(=O)[C@@H](N)CSSC[C@@H](C(=O)O)NC(=O)[C@H](Cc2c[nH]c3ccccc23)NC(=O)[C@H](CC(=O)O)NC1=O
notes: Disulfide cyclic peptide; also called Cys-Trp-Leu-Asp-Trp-Cys-acid
B11: SEQ ID NO 19 (peptide)
peptide: CYLDVC-OH
modifications: disulfide 1-6; N-terminus assumed
SMILES: CC(C)C[C@@H]1NC(=O)[C@H](Cc2ccc(O)cc2)NC(=O)[C@@H](N)CSSC[C@@H](C(=O)O)NC(=O)[C@H](C(C)C)NC(=O)[C@H](CC(=O)O)NC1=O
notes: Disulfide cyclic peptide; also called Cys-Tyr-Leu-Asp-Val-Cys-acid
B12: SEQ ID NO 23 (peptide)
peptide: CWIDVC-OH
modifications: disulfide 1-6; N-terminus assumed
SMILES: CC[C@H](C)[C@@H]1NC(=O)[C@H](Cc2c[nH]c3ccccc23)NC(=O)[C@@H](N)CSSC[C@@H](C(=O)O)NC(=O)[C@H](C(C)C)NC(=O)[C@H](CC(=O)O)NC1=O
notes: Disulfide cyclic peptide; also called Cys-Trp-Ile-Asp-Val-Cys-acid
B13: SEQ ID NO 21 (peptide)
peptide: CFLDVC-OH
modifications: disulfide 1-6; N-terminus assumed
SMILES: CC(C)C[C@@H]1NC(=O)[C@H](Cc2ccccc2)NC(=O)[C@@H](N)CSSC[C@@H](C(=O)O)NC(=O)[C@H](C(C)C)NC(=O)[C@H](CC(=O)O)NC1=O
notes: Disulfide cyclic peptide; also called Cys-Phe-Leu-Asp-Val-Cys-acid
B14: SEQ ID NO 24 (peptide)
peptide: CWMDVC-OH
modifications: disulfide 1-6; N-terminus assumed
SMILES: CSCC[C@@H]1NC(=O)[C@H](Cc2c[nH]c3ccccc23)NC(=O)[C@@H](N)CSSC[C@@H](C(=O)O)NC(=O)[C@H](C(C)C)NC(=O)[C@H](CC(=O)O)NC1=O
notes: Disulfide cyclic peptide; also called Cys-Trp-Met-Asp-Val-Cys-acid
B15: SEQ ID NO 16 (peptide)
peptide: CSWLDVC
modifications: disulfide 1-7
notes: Disulfide cyclic peptide; also called Cys-Ser-Trp-Leu-Asp-Val-Cys
B16: SEQ ID NO 31 (peptide)
peptide: CWLDVC-OH
modifications: disulfide 1-6; N-terminus assumed
SMILES: CC(C)C[C@@H]1NC(=O)[C@H](Cc2c[nH]c3ccccc23)NC(=O)[C@@H](N)CSSC[C@@H](C(=O)O)NC(=O)[C@H](C(C)C)NC(=O)[C@H](CC(=O)O)NC1=O
notes: Disulfide cyclic peptide; also called Cys-Trp-Leu-Asp-Val-Cys-acid
B17: SEQ ID NO 17 (peptide)
peptide: C[dW]LDVC-OH
modifications: disulfide 1-6; N-terminus assumed
SMILES: CC(C)C[C@@H]1NC(=O)[C@@H](Cc2c[nH]c3ccccc23)NC(=O)[C@@H](N)CSSC[C@@H](C(=O)O)NC(=O)[C@H](C(C)C)NC(=O)[C@H](CC(=O)O)NC1=O
notes: Disulfide cyclic peptide; also called Cys-dTrp-Leu-Asp-Val-Cys-acid
B18: SEQ ID NO 32 (peptide)
peptide: [dC]WLDVC-OH
modifications: disulfide 1-6; N-terminus assumed
SMILES: CC(C)C[C@@H]1NC(=O)[C@H](Cc2c[nH]c3ccccc23)NC(=O)[C@H](N)CSSC[C@@H](C(=O)O)NC(=O)[C@H](C(C)C)NC(=O)[C@H](CC(=O)O)NC1=O
notes: Disulfide cyclic peptide; also called dCys-Trp-Leu-Asp-Val-Cys-acid

From patent publication US6713604 (TEXAS BIOTECHNOLOGY, dated 2004) come the findings set out here.

Bridges are numbered along the chain shown (N, C = ends). Where no end group is shown, it is not given here. [ ]: non-standard residue; d: D form. A value given as a limit tells only on which side of the number the result lay.

For the test, the target named is T1, integrin α4β1 (human, UniProt P13612 34-1032; P05556 21-798).
T1 construct: whole, on cells; also called VLA-4; very late antigen-4
T1 sequence (P13612 34-1032, chain 1 of 2): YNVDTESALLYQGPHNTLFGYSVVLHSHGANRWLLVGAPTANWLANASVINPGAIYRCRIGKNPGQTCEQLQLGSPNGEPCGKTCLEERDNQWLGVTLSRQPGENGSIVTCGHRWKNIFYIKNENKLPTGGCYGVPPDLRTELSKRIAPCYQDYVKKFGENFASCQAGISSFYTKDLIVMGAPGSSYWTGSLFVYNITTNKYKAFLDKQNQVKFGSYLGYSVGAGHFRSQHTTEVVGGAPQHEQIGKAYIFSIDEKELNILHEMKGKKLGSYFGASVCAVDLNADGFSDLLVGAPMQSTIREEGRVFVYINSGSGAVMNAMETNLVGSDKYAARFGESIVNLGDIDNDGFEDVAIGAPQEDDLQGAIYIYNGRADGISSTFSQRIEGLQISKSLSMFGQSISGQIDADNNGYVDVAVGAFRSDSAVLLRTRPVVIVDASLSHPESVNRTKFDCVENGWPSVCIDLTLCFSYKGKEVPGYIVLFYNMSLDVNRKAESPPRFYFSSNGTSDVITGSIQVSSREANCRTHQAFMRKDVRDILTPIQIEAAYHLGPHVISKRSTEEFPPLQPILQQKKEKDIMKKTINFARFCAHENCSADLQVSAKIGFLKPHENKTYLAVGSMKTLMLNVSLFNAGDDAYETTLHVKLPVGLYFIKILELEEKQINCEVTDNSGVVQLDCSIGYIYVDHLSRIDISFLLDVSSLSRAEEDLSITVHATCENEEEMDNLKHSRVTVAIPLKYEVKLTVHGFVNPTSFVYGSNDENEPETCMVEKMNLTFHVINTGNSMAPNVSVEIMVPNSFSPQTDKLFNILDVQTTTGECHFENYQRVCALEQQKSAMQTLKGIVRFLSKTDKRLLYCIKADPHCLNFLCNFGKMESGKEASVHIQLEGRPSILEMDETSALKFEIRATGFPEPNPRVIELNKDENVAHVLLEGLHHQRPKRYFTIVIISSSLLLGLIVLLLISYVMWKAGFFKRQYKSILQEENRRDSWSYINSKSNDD
T1 sequence (P05556 21-798, chain 2 of 2): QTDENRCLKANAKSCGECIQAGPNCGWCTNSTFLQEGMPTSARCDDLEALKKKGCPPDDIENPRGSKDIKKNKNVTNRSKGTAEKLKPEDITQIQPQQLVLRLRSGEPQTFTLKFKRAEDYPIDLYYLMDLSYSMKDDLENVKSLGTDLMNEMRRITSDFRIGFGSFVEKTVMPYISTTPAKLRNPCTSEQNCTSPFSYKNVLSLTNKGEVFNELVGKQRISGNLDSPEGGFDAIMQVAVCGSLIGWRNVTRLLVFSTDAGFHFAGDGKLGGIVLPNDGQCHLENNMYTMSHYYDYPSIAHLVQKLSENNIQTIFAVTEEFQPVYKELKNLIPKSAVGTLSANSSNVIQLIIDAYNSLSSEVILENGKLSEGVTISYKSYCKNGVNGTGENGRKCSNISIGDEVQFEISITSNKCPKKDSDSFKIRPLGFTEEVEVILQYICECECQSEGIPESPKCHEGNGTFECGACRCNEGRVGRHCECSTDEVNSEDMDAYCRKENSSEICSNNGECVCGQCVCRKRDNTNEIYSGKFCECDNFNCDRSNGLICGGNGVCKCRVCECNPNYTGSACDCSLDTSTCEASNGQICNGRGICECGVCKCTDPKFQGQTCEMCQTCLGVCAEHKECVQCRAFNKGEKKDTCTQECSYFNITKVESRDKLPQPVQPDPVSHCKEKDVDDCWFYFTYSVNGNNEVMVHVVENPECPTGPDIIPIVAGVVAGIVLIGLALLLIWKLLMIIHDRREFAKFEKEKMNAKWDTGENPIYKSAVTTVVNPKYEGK
The test is described as follows: inhibition of HL-60 cell (α4β1) binding to VCAM-IgG coated beads, fluorimetry. How it is done: The media was collected and active protein was purified by immunoprecipitation using Dynal magnetic polystyrene beads coated with goat anti-mouse IgG. Following immunoprecipitation, the beads bound cells that expressed the integrin α_4β_1 such as Ramos and HL-60.
HL-60 cells were fluorescently labeled with Calcein AM C-3099 (Molecular Probes) and resuspended in 1 ml of binding buffer (Hank's balanced salt solution, pH 7.4, 1.0 mM CaCl_2, 1.0 mM MgCl_2). The beads (10 µl, 4×10^6 beads/ml) were placed in wells of a 96-well microtiter dish with 10 µl of peptide at various concentrations. The beads were incubated with 10 µl of labeled cells (10^7 cells/ml) for 10 min at room temperature. Following immobilization of the beads onto the plastic with a magnet, unbound cells were removed by washing three times with binding buffer. The remaining bound cells were lysed in 50 mM Tris, pH 7.4, 5.0 mM EDTA, 1.0% NP-40 and quantitated by fluorimetry using a Millipore Cytofluor 2350 fluorimeter. Dose response curves were calculated and IC$50$ values determined. Alternatively, the percent adhesion was determined at a single peptide concentration for comparison among peptides.
With B1, the “peptide concentration that significantly inhibits binding” value was less than 10 µM. The figure for B2 is less than 10 µM; for B3 it is less than 10 µM. The figure for B4 is less than 10 µM; for B5 it is less than 10 µM. The figure for B6 is less than 10 µM; for B7 it is less than 10 µM.

Turning to B8, the “peptide concentration that significantly inhibits binding” value was less than 10 µM. For B9, the “peptide concentration that significantly inhibits binding” value was less than 10 µM.

For B10, the “peptide concentration that significantly inhibits binding” value is less than 10 µM. As for B11, the “peptide concentration that significantly inhibits binding” value is less than 10 µM. The figure for B12 is less than 10 µM. Turning to B13, the “peptide concentration that significantly inhibits binding” value was less than 10 µM. The figure for B14 is less than 10 µM; for B15 it is less than 10 µM; for B16 it is less than 10 µM. Next, B17: less than 10 µM; B18: less than 10 µM.
